Assay results as given in patent US20140099324A1 (University of Texas, published 2014).

T1: HERV-K env protein expressed endogenously by human cancer cell lines (human endogenous retrovirus K)
T1 chain: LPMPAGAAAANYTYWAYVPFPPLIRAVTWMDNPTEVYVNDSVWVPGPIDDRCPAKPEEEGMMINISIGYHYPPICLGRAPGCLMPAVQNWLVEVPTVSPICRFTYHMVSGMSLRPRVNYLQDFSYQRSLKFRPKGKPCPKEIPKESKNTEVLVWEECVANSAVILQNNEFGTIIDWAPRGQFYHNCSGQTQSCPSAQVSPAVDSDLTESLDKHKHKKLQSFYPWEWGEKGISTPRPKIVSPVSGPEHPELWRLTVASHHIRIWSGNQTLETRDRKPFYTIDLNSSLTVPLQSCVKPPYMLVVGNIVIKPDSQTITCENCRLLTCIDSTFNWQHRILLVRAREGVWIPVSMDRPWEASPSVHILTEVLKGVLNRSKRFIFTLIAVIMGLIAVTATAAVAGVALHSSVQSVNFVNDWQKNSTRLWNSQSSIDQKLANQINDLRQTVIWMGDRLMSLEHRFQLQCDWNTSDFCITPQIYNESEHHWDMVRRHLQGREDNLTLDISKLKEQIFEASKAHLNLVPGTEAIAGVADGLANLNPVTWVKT

B1: anti-HERV-K env monoclonal antibody 6H5 (antibody, V domains shown)
VH: MAQVKLQQSGPDLVKPGASVKISCKASGYSFTGYYMHWVKQSHGKSLEWIGRVNPNSGGTSYNQKFKDKAILTVDKSSSTAYMELRSLTSEDSAVYYCARSKGNYFYAMDY
VL: ASLAVSLGQRATISCRASESVDSHGTSFMHWYQQKPGQPPKFLIYRASNLESGIPARFSGSGSRTDFTLTINPVETDDVAIYYCQQSNEDPPTFGGGTKLEIK

Columns and labels:
[1] = target: HERV-K recombinant fusion protein K10Q18 (K-SU in pQE30, N-terminal 6-His) (human endogenous retrovirus K); assay: flow cytometry on dendritic cells pulsed with the protein
[2] = target: T1, HERV-K env protein expressed …; assay: cell-based or functional assay

Molecule | percent of DCs positive [1] [%] | IC50, cytotoxicity toward MCF-7 breast cancer cells (72 h, crystal violet) [2] [nM] | IC50, cytotoxicity toward MDA-MB-231 breast cancer cells (72 h, crystal violet) [2] [nM]
anti-RGS monoclonal antibody (Qiagen) | > 70 | – | –
B1 | – | 51.7 | 6.6
